From patent publication US20040229301A1 (published 2004) come the findings set out here.

Residue numbers refer to the chain shown, from its start. Where “and” joins values, the source holds several entries; their conditions need not be identical. Equal entries are not always repeated.

Assay [1] deals with full-length human tissue factor with C-terminal RGS-His6 tag, stably expressed on CHO-K1 cells (human, UniProt P13726 33-295). As to the kind of experiment: cell-based or functional assay.
Assay [2] has as its target T1, human tissue factor, endogenous, on tumor cell lines (H596; TF-positive SW900) (human, UniProt P13726 33-295).
T1 construct: whole, on cells; also called hTF
As to the kind of experiment: FACS on H596 cells.

For assay [3], the target named is T2, soluble human tissue factor (extracellular domain of hTF with C-terminal RGS-His6 tag) (human, UniProt P13726 33-251).
T2 construct: leader left out (range computed from the stated lengths); Expressed in HEK293, purified on Ni-agarose and by gel filtration; also called soluble hTF; recombinant soluble hTF
As to the kind of experiment: BIAcore X, soluble hTF immobilized on CM5 chip, mAb injected. The method, then:
Binding properties of anti-hTF mAbs were evaluated using BIAcore X. Briefly, a CM5 BIAcore biosensor chip was docked into the instrument and activated with 55 μl of 1:1 NHS/EDC at room temperature. The recombinant soluble hTF and BSA (10 μg/ml in 0.05 M acetate buffer, pH 4.5) were immobilized on the activated chips in flow cells 1 and 2, respectively. The immobilization was carried out at a flow rate of 5 μl/min until a resonance response of 1000-2000 RU was achieved. The chip was then blocked by injection of 55 μl of ethanolamine-HCl, pH 8.5 followed by 5 washes with 50 mM NaOH, 1 M NaCl. To measure the binding of anti-hTF mAbs to the soluble hTF immobilized to the chip, 30 μl of anti-hTF mAbs at varying concentrations in BIAcore running buffer (HBS-EP, Biacore AB, Uppsala, Sweden, Cat. #1001-08) were injected over the sensor surface at a flow rate of 5 μl/min. Following completion of the injection phase, dissociation was monitored in BIAcore running buffer at the same flow rate for 360 seconds. The surface was regenerated between injections using 30 μl of 50 mM NaOH-1 M NaCl. Individual sensorgrams were analyzed using BIAsimulation software.

B1: monoclonal anti-TF antibody TF277 (hybridoma cell line TF277, ATCC PTA-5675) (antibody, IgG1, V domains shown)
VH: QVQLQQPGAELVKPGASVKLSCKTSGYTFTSYWMHWVKQRPGQGLEWIGEIDPSDSYTNYNQKFKGKATLTVDKSSSTAYMQLSSLTSEDSAVYYCTYYVNYYAMDYWGQGTSVTVSS
VL: QIVLTQSPAIMSASLGEEITLTCSASSSVSYMHWYQQKSGTSPKLLIYSTSNLASGVPSRFSGSGSGTFYSLTISSVEAEDAADYYCHQWSSYPYTFGGGTKLEIK
In the case of B1, in assay [1], the “Coagulation (seconds), Ab 10 ug/ml” value turned out to be 202 s. In assay [2], the half-maximal effective concentration (EC50) was 0.48 nM and 0.71 nM. In assay [3], this molecule registered a Kd of 7.14 nM and an off-rate constant (koff) of 0.00312 s⁻¹.

B2: monoclonal anti-TF antibody TF9 (hybridoma cell line TF9, ATCC PTA-5674) (antibody, V domains shown)
VH: DVKLQESGPDLVKPSQSLSLTCTVTGYSITSGYSWHWIRQFPGNKLEWMGYIHYSGSTKYNPSLKSRISITRDTSKNQFFLQLNSVTTEDTATYYCARLWSWYFDVWGAGTTVTVSS
VL: NIMMTQSPSSLAVSAGEKVTMSCKSSQSVLYSSNQKNYLAWYQQKPGQSPKLLIYWASTRESGVPDRFTGSGSGTDFTLTISSVQAEDLAVYYCHQYLSSYTFGGGTKLEIK
With B2, the “Coagulation (seconds), Ab 10 ug/ml” value in assay [1] is 195 s. Also, in assay [3], binding was characterised by a dissociation constant (Kd) of 1.84 nM and the koff came out at 0.000364 s⁻¹.

B3: monoclonal anti-TF antibody TF278 (hybridoma cell line TF278, ATCC PTA-5676) (antibody, IgG1, V domains shown)
VH: EVQLQQSGAELMKPGASVKISCKATGYTFSSYWIEWVKQRPGHGLEWIGEILPGSASTKYNEKFKGKATFTADTSSNTAYMQLSSLTSEDSAVYYCARDYYYGSSYGFAYWGQGTLVTVSS
VL: QAVVTQESALTTSPGETVTLTCRSSTGAVTTSNYANWVQEKPDHLFTGLIGGTNNRGPGVPARFSGSLIGDKAALTITGAQTEDEAVYFCALWYSNHWVFGGGTKLTVLG
Turning to B3, the “Coagulation (seconds), Ab 10 ug/ml” value in assay [1] is 190 s. Moreover, the half-maximal effective concentration (EC50) in assay [2] was 0.48 nM and 1.14 nM. In assay [3], the Kd came to 0.789 nM and the off-rate constant (koff) was determined as 0.000138 s⁻¹.

B4: monoclonal anti-TF antibody TF260 (hybridoma cell line TF260, ATCC PTA-5197) (antibody, V domains shown)
VH: QVQLKQSGAELMKPGASVKISCKATGYTFSSYWIEWVKQRPGHGLEWIGEILPGSGSTNYNEKFKGKATFTADTSSNTAYMQLSSLTSEDSAVYYCAREDRYDGDYWGQGTTLTVS
VL: B3 VL with G57A, V87I
Turning to B4, in assay [3], the dissociation constant Kd stood at 19.3 nM, the koff worked out at 0.000191 s⁻¹ and the kon was found to be 9910 M⁻¹ s⁻¹.

B5: monoclonal anti-TF antibody TF392 (hybridoma cell line TF392, ATCC PTA-5677) (antibody, IgG1, V domains shown)
VH: QVQLKESGAELMKPGASVKISCKATGYTFSSYWIEWVKQRPGHGLEWIGEILPGSGSTNYNEKFKGKATFTADTSSNTAYMQLSSLTSEDSAVYYCARDRNGYVNYFDSWGQGTTLTVSS
VL: B3 VL with G57A, V87I
Turning to B5, in assay [1], the “Coagulation (seconds), Ab 10 ug/ml” value was determined as 210 s. Also, in assay [2], the Bmax was determined as 58 and the EC50 was determined as 6.29 nM. For the same molecule, in assay [3], the dissociation constant (Kd) is 2.46 nM and the dissociation rate constant (koff) turned out to be 0.00013 s⁻¹.

B6: monoclonal anti-TF antibody TF196 (hybridoma cell line TF196, ATCC PTA-5196) (antibody, V domains shown)
VH: QVQLKQSGPELEKPGASVKISCKASGYSFTGYNMNWVKQSNGKSLEWIGNIDPYYGGTSYNQKFKGKATLTVDKSSNTAYMHLKSLTSEDSAVYYCARDSSSWFAYWGQGTLVTVSA
VL: DIQLTQSPASLSASVGETVTITCRASGNIHNYLAWYQQKQGKSPQLLVYNAKTLADGVPSRFSGSGSGTQYSLKINSLQPEDFGSYYCQHFWITPWTFGGGTKLEI
notes: Mouse hybridoma IgG
For B6, in assay [3], the affinity, expressed as Kd, was 66.3 nM; the off-rate (koff) was found to be 0.00279 s⁻¹; the kon is 42100 M⁻¹ s⁻¹.
